Experimental findings from US20240026019A1 (Innovent, published 2024) are described below.

Assay [1] concerns the target T1, rh-TNFR2-His (recombinant human TNFR2, His tag) (human, UniProt P20333 23-257).
T1 construct: Soluble antigen of the ForteBio assay; not shown: His tag
T1 sequence (looked up): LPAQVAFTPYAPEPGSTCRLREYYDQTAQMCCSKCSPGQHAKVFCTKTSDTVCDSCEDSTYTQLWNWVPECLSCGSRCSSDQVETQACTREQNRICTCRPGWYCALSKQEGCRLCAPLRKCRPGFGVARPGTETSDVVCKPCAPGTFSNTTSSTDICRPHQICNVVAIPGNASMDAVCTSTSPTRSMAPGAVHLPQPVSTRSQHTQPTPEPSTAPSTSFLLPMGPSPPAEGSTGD
The assay can be described thus: BLI (ForteBio), antibody on sensor, 100 nM rh-TNFR2-His in solution, 1:1 model. How it is done: (§1) In the present invention, the equilibrium dissociation constant (KD) for the binding of the 3 exemplary chimeric antibodies of the present invention described above to human TNFR2 (hTNFR2), cynomolgus monkey TNFR2 (cTNFR2), murine TNFR2(mTNFR2), and human TNFR1(hTNFR1) was determined by biological optical interferometry (ForteBio). For comparison, the equilibrium dissociation constant (KD) of a positive control antibody OPI (humanized antibody SBT-002e in WO 2017083525, VH sequence of SEQ ID NO: 58, VL sequence of SEQ ID NO: 59) was determined.
(§2) The ForteBio affinity assay was performed according to the prior art (Estep, P, et al., High throughput solution based measurement of antibody-antigen affinity and epitope binning. MAbs, 2013.5(2): p. 270-278). Briefly, a sensor was equilibrated offline in an assay buffer for 30 min, and was equilibrated online for 60 s to establish a baseline. The purified antibodies obtained as described above were loaded online onto an AHQ sensor (ForteBio) for the ForteBio affinity assay. The sensor with the loaded antibodies was then exposed to each of 100 nM hTNFR2, cTNFR2, mTNFR2, and hTNFR1 antigens for 5 min before transferring the sensor to an assay buffer for 5 min of dissociation for dissociation rate measurement. The kinetic analysis was performed using a 1:1 binding model.

Assay [2] concerns the target T2, hTNFR2 protein (coated on the microplate in the blocking ELISA) (human, UniProt P20333 23-257).
T2 construct: The construct coated in the ELISA is not described (it may or may not be the immunogen, Sino biological 10417-H03H)
T2 sequence (looked up): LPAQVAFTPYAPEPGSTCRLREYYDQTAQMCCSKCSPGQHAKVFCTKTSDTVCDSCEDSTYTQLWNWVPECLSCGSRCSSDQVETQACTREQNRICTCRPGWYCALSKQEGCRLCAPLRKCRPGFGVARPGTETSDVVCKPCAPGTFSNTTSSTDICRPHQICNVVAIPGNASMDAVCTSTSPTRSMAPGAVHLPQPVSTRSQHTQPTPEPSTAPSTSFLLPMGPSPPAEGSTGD
The assay can be described thus: blocking ELISA: hTNFR2 coated on the plate, binding of biotinylated TNFα blocked by the antibody; the table row is headed EC50; unit taken from the axis log Conc nM. How it is done: The ability of the chimeric antibodies 3C4, 69B1, and 72G8 and the control antibody OPI to block the binding of human TNFα to hTNFR2 was assayed by ELISA.
The hTNFR2 protein was resuspended and dissolved to a concentration of 2 μg/mL with PBS, and a microplate was coated with the protein and incubated overnight. The plate was blocked with 5% BSA for 1 h, and a biotinylated antigen (Recombinant Biotinylated TNFα protein (ACRO)) was diluted to 2 μg/mL and added to the plate at 10 μL/well. The antibodies prepared as described above (3C4, 69B1, and 72G8) were each diluted in a gradient starting from the maximum concentration of 300 nM for a total of 8 or 12 dilution gradients. The diluted antibodies were added at 100 μL/well and incubated in PBS on ice for 30 min. The antigen-antibody mixture was incubated in a microplate for 90 min and washed three times with PBS, and the supernatant was discarded. 100 μL of Avidin-HRP (Invitrogen) diluted at a 1:5000 ratio was added to each well, incubated at room temperature for 30 min, and washed six times with PBS. A TMB chromogenic solution (solarbio) was added to the plate at 100 μL/well for color development for 1 min, and the reaction was stopped by adding a stop buffer (solarbio) at 100 μL/well. The plate was read on a microplate reader at OD₄₅₀ and OD₆₂₀.
On the technique in general: In an ELISA, binding on a coated surface is turned into a signal by an enzyme label.

In assay [3] the target is T3, CYNO-TNFR2-His (cynomolgus monkey TNFR2, His tag) (cynomolgus monkey, UniProt A0A2K5VET2 132-366).
T3 construct: Soluble antigen of the ForteBio assay; also called cTNFR2; not shown: His tag
T3 sequence: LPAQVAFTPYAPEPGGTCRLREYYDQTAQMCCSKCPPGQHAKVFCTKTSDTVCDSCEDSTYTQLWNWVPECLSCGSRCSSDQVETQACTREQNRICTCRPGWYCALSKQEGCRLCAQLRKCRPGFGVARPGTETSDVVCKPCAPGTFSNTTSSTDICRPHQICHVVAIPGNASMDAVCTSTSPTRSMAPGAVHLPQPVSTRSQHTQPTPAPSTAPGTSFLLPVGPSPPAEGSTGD
The assay can be described thus: BLI (ForteBio), antibody on sensor, 100 nM CYNO-TNFR2-His in solution, 1:1 model. How it is done: as §1, §2
Background: In BLI a coated tip is dipped into the sample, and binding shifts an interference pattern.

B1: chimeric antibody 69B1 (antibody, human IgG1, kappa, V domains shown)
VH: QIQLVQSGPELKKPGETVKISCKASGYTFTDYSMNWVKQAPGKGLKWMGWLNTETGEPIYADDFKGRFVFSLETSASTAYLEINNLNDEDTATYFCAREAIYYGTSYVLDYWGQGTSVTVSS
VL: DIVLTQSPASLAVSLGQRATISCRASESVEYYGTNFMQWYQQKPGQPPKLLIYSASNVESGVPARFSGSGSGTDFSLNIHPVEEDDIAVYFCQQSRKDPSTFGEGTNLEIKR
In the case of B1, in assay [1], the dissociation constant (Kd) worked out at 0.265 nM, the koff worked out at 0.000519 s⁻¹ and the kon was found to be 1.96e+06 M⁻¹ s⁻¹. Also, in assay [2], the IC50 stood at 2.15 nM. For the same molecule, in assay [3], the Kd came to 1.11 nM, the dissociation rate constant (koff) amounted to 0.00198 s⁻¹ and the kon was 1.79e+06 M⁻¹ s⁻¹.

B2: positive control antibody OPI (humanized antibody SBT-002e in WO 2017083525) (antibody, V domains shown)
VH: QVTLKESGPALVKPTQTLTLTCTFSGFSLSTSGMGVGWIRQPPGKALEWLAHIWWDDDKFYNPSLKSRLTISKDTSKNQVVLTMTNMDPVDTATYYCARLTGTRYFDYWGQGTTVTVSS
VL: DVQMTQSPSSLSASVGDRVTITCKASQDINKFIAWYQQKPGKAPKLLIHYTSTLQPGIPSRFSGSGSGRDYTFTISSLQPEDIATYYCLQYGNLWTFGGGTKVEIK
notes: also called Benchmark OPI
Take B2: in assay [1], the dissociation constant Kd was determined as 4.18 nM, the koff amounted to 0.000229 s⁻¹ and the on-rate constant (kon) came to 54800 M⁻¹ s⁻¹. Besides, the IC50 in assay [2] worked out at 4.56 nM. In assay [3], this molecule yielded a Kd of 1.15 nM, an off-rate constant (koff) of 0.000328 s⁻¹ and a kon of 284000 M⁻¹ s⁻¹.

B3: chimeric antibody 3C4 (antibody, human IgG1, kappa, V domains shown)
VH: QVQLQQSGPELVKPGASVTISCKASDYSFTNYYIHWVKQRPGQGLEWIGWIYPGNVITKYHEKFKGKAILTADTSSTTAYMQLNSLTSEDSAVYFCARSRATGYFDYWGQGTTLTVSS
VL: DIQMTQTTSSLSASLGDRVTISCRASQDIRNYLNWFQQKPDGTIKLLIYYTSRLHSGVPSRFSGSGSGTDYSLTISNLEQEDMATYFCQQFNTLPWTFGGGTKLEIKR
In the case of B3, in assay [1], the Kd stood at 1.36 nM, the dissociation rate constant (koff) was determined as 0.00176 s⁻¹ and the association rate constant (kon) came to 1.29e+06 M⁻¹ s⁻¹. Besides, in assay [2], the IC50 was determined as 3.11 nM. In assay [3], the Kd was 1.42 nM, the off-rate (koff) is 0.00201 s⁻¹ and the kon is 1.41e+06 M⁻¹ s⁻¹.

One may read the Kd as the free concentration of one partner at which half of the binding sites on the other are occupied at equilibrium, for simple one-to-one binding. The koff is the rate constant with which the complex falls apart. By kon is commonly meant the second-order rate constant of association. By IC50 is commonly meant the point on the concentration scale where inhibition reaches its midpoint.
